Laboratory results published in patent publication US20170267750A1, “Method of Treating Ovarian and Renal Cancer Using Antibodies Against T Cell Immunoglobulin Domain and Mucin Domain 1 (TIM-1) Antigen” (Celldex Therapeutics, Inc., priority 2005, published 2017).
Blank lines part the entries; values can stand above or below the binder they belong to.

Legend:
[1] = biological target: TIM-1 (T cell, immunoglobulin domain and mucin domain 1), cell membrane-bound (human) (UniProt Q96D42); test: cell-based or functional assay
[2] = biological target: TIM-1 antigen, soluble extracellular domain of TIM-1 (CG57008-02) with a V5-HIS tag (human) (UniProt Q96D42); test: BIAcore 2000, 25 C, mAb captured on goat anti-human surface, TIM-1 antigen injected at 292 nM
Sequence of TIM-1 antigen, soluble extracellular domain of TIM-1 (CG57008-02) with a V5-HIS tag (human) (Q96D42 other isoform, or with tags, fused parts or gaps): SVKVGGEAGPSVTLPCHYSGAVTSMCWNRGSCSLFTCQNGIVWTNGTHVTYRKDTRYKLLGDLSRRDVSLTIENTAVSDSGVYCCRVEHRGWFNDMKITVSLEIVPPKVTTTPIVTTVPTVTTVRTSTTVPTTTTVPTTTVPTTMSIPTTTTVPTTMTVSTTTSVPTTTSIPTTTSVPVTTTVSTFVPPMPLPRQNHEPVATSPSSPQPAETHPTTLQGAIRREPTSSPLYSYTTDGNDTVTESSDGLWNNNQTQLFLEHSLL

Sequence of TIM-1 (T cell, immunoglobulin domain and mucin domain 1), cell membrane-bound (human) (Q96D42 21-364): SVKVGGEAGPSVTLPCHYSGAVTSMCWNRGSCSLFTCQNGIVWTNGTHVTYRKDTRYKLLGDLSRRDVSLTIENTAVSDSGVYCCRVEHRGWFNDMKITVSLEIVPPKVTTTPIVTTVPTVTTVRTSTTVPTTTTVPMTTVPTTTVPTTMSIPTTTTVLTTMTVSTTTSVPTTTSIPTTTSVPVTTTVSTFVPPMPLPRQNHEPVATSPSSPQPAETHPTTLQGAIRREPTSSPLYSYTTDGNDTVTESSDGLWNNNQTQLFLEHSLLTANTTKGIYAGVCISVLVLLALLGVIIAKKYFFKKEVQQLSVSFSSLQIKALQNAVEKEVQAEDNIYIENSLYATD

B1: Auristatin E (AE)-conjugated anti-TIM-1 mAb 2.70.2 (antibody, human IgG4, kappa, V domains shown)
VH: QVQLVESGGGVVQPGRSLRLSCAASGFIFSRYGMHWVRQAPGKGLKWVAVIWYDGSNKLYADSVKGRFTISRDNSKNTLYLQMNSLRAEDTAVYYCARDYYDNSRHHWGFDYWGQGTLVTVSS
VL: DIVMTQTPLSLPVTPGEPASISCRSSRSLLDSDDGNTYLDWYLQKPGQSPQLLIYTLSYRASGVPDRFSGSGSGTDFTLKISRVEAEDVGVYYCMQRVEFPITFGQGTRLEIKR
- CAKI-1 cell death, clonogenic assay with AE-conjugated antibody, maximum dose [1]: > 90%

B2: Auristatin E (AE)-conjugated anti-TIM-1 mAb 2.59.2 (antibody, V domains shown)
VH: NNNNNQSGPRLVKPSQTLSLTCTVSGGSISSDGYYWSWIRQHPGKGLEWIGYIYYSGSTFYNPSLKSRVAISVDTSKNQFSLKLSSVTAADTAVYYCARESPHSSNWYSGFDCWGQGTLVTVSS
VL: NNNNTQSPDFQSVTPKEKVTITCRASQSIGSRLHWYQQKPDQSPKLLIKYASQSFSGVPSRFSGSGSGTDFTLTINSLEAEDAATYYCHQSSNLPFTFGPGTKVDIKR
- CAKI-1 cell death, clonogenic assay with AE-conjugated antibody, maximum dose [1]: > 90%

- Kd [2]: 3.35 nM
B3: anti-TIM-1 monoclonal antibody 2.54 (antibody, V domains shown)
VH: QVQLEQSGGGVVQPGRSLRLSCAASGFTFTNYGLHWVRQAPGKGLDWVAVIWYDGSHKFYADSVKGRFTISRDNSKNTLFLQMNSLRAEDTAVYYCTRDLDYWGQGTLVTVSS
VL: ETQLTQSPGTLSLSPGERVTLSCRASQSVSNNYLAWYQQKPGQAPRLLIYGASSRATGIPDRFSGSGSGTDFTLTISRLEPEDCAECYCQQYGSSLPLTFGGGTKVEIKR
